# Measured values: the supplement of paper PMC7877785
# ± gives the uncertainty stated by the source.
# Test: self-splicing fitness, log relative to wild type (ln ratio); higher = more splicing; Tetrahymena group I intron in knt gene, E. coli kanamycin selection, DiMSum; sequences stand for … in CUCUCU…GGAGGGAAAAGUUAUCAGGCAUGCACCUGGUAGCUAGUCUUUAAACCAAUAGAUUGCAUCGGUUUAAAAGGCAAGACCGUCAAAUUGCGGGAAAGGGGUCAACAGCCGUUCAGUACCAAGUCUCAGGGGAAACUUUGAGAUGGCCUUGCAAAGGGUAUGGUAAUAAGCUGACGGACAUGGUCCUAACCACGCAGCCAAGUCCUAAGUCAACAGAUCUUCUGUUGAUAUGGAUGCAGUUCACAGACUAAAUGUCGGUCGGGGAAGAUGUAUUCUUCUCAUAAGAUAUAGUCGGACCUCUCCUUAAUGGGAGCUAGCGGAUGAAGUGAUGCAACACUGGAGCCGCUGGGAACUAAUUUGUAUGCGAAAGUAUAUUGAUUAGUUUUGGAGUACUCGUGGUCG
# Summary of the method: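 A randomised library covering all eight P1ex-region intron nucleotides was built with the intron in the knt kanamycin-resistance gene on pET-22b(+) and held in E. coli BL21(DE3). Cells were grown overnight at 37°C or 30°C on LB agar, with or without 25 μg/mL kanamycin, plus 100 μg/mL carbenicillin, 50 μM IPTG and 0.2% rhamnose, and pooled colonies were amplicon-sequenced on an Illumina HiSeq 2500. DiMSum fitness is the error-weighted combination of wild-type-normalised replicate fold changes, kanamycin versus none.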
Sequence,self-splicing fitness (ln) (30 °C),self-splicing fitness (ln) (37 °C)
UAACAGCAAUAUUACGUUUG,-2.13 ± 0.079,-0.759 ± 0.081
UAAGAGCAAUAUUACGAACG,,-2.57 ± 0.41
UAAGAGCAAUAUUACGAAGG,-4.21 ± 0.34,-1.81 ± 0.2
UAAGAGCAAUAUUACGAAUA,-3.27 ± 0.26,-1.32 ± 0.19
UAAGAGCAAUAUUACGACAU,-3.866 ± 0.031,-2.82 ± 0.043
UAAGAGCAAUAUUACGAGGG,-3.64 ± 0.14,-2.53 ± 0.16
UAAGAGCAAUAUUACGAUAU,-3.22 ± 0.24,-2.86 ± 0.28
UAAGAGCAAUAUUACGCAAG,-3.12 ± 0.44,-1.51 ± 0.45
UAAGAGCAAUAUUACGCGCU,-3.17 ± 0.28,-3.35 ± 0.39
UAAGAGCAAUAUUACGCGUA,-1.55 ± 0.29,0.00439 ± 0.15
UAAGAGCAAUAUUACGCUAG,-3.86 ± 0.26,-1.94 ± 0.21
UAAGAGCAAUAUUACGCUAU,-3.95 ± 0.32,-2.64 ± 0.24
UAAGAGCAAUAUUACGGAUU,,-2.13 ± 0.48
UAAGAGCAAUAUUACGGGAA,-2.21 ± 0.3,-1.77 ± 0.24
UAAGAGCAAUAUUACGGGUA,-2.57 ± 0.2,-1.59 ± 0.17
UAAGAGCAAUAUUACGGUAA,-2.55 ± 0.21,-3.19 ± 0.28
UAAGAGCAAUAUUACGGUUA,-1.12 ± 0.12,-0.602 ± 0.1
UAAGAGCAAUAUUACGUAAC,-5.23 ± 0.45,-1.44 ± 0.18
UAAGAGCAAUAUUACGUCAA,-3.41 ± 0.25,-2.36 ± 0.18
UAAGAGCAAUAUUACGUCUC,-4.3 ± 0.34,-2.31 ± 0.21

Sequence,self-splicing fitness (ln) (30 °C),self-splicing fitness (ln) (37 °C)
UAAGAGCAAUAUUACGUGAA,-1.72 ± 0.17,-1.74 ± 0.29
UAAGAGCAAUAUUACGUGAG,-1.37 ± 0.13,-0.181 ± 0.23
UAAGAGCAAUAUUACGUGGU,-3.74 ± 0.24,-2.57 ± 0.19
UAAGAGCAAUAUUACGUUAC,,-2.7 ± 0.34
UAAGAGCAAUAUUACGUUUC,-3.76 ± 0.26,-2.51 ± 0.39
UAAGAGCAAUAUUACGUUUG,-2.33 ± 0.096,-1.07 ± 0.12
UAAUAGCAAUAUUACGACUC,-3.23 ± 0.25,-1.03 ± 0.23
UAAUAGCAAUAUUACGACUU,-0.84 ± 0.1,-0.376 ± 0.094
UAAUAGCAAUAUUACGAGCG,-1.02 ± 0.1,-0.261 ± 0.15
UAAUAGCAAUAUUACGAGGG,-3.81 ± 0.39,-1.73 ± 0.23
UAAUAGCAAUAUUACGAGGU,-3.06 ± 0.2,-2.65 ± 0.26
UAAUAGCAAUAUUACGAUAA,-3.33 ± 0.2,-1.78 ± 0.16
UAAUAGCAAUAUUACGAUGC,-3.45 ± 0.3,
UAAUAGCAAUAUUACGAUGU,-2.78 ± 0.18,-2.48 ± 0.19
UAAUAGCAAUAUUACGCAGA,,-0.288 ± 0.16
UAAUAGCAAUAUUACGCCGA,-1.01 ± 0.29,-1.51 ± 0.44
UAAUAGCAAUAUUACGCUUU,-3.54 ± 0.44,-1.5 ± 0.2
UAAUAGCAAUAUUACGGCCA,-0.34 ± 0.17,0.175 ± 0.18
UAAUAGCAAUAUUACGGCUU,-0.901 ± 0.096,-0.115 ± 0.13
